According to PMC3876986, “The Velvet Family of Fungal Regulators Contains a DNA-Binding Domain Structurally Similar to NF-κB”:

Tests used:
Assay in all cases: EMSA; EMSA: 10 mM HEPES/NaOH pH 7.4, 150 mM NaCl, ~53 pmol DNA in 10 ul, RT 15 min; DNA:protein molar ratios 1:0.3 to 1:9; 6% PAGE, 0.5% TBE, ethidium bromide
Conditions in all cases: protein: recombinant; tags: Strep-tag (C-terminal); chain copies: 2; blunt
VosA1-190 dead = molecular target: T1, VosA1-190 dead (Aspergillus nidulans, UniProt Q5BBX1 1-190, K37A;K39A;R41A;K42A)
T1 sequence: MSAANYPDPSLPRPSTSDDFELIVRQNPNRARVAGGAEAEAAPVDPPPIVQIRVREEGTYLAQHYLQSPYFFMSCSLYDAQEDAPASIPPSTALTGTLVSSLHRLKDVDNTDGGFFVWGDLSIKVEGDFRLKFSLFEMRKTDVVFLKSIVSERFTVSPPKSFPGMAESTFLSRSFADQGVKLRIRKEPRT

VosA1-190 K160A = molecular target: T2, VosA1-190 K160A (Aspergillus nidulans, UniProt Q5BBX1 1-190, K160A)
T2 sequence: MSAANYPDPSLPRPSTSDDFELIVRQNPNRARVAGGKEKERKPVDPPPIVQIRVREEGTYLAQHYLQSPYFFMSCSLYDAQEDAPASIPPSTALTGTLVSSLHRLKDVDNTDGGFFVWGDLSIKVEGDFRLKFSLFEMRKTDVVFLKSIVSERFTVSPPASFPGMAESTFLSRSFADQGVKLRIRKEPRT

VosA1-190 K37A/K39A = molecular target: T3, VosA1-190 K37A/K39A (Aspergillus nidulans, UniProt Q5BBX1 1-190, K37A;K39A)
T3 sequence: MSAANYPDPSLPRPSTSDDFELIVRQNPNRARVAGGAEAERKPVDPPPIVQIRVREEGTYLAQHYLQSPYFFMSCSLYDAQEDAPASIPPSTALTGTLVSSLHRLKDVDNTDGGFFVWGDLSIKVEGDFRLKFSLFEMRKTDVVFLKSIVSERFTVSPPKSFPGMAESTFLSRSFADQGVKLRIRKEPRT

B1: brlA 35 bp probe (OHS301/302) (dsDNA)
DNA 1: ATTCGGCGACTAGGATCTTACTGGCCGCGGCCGAG
DNA 2: CTCGGCCGCGGCCAGTAAGATCCTAGTCGCCGAAT
binding result (VosA1-190 dead): no binding
binding result (VosA1-190 K160A): binds
binding result (VosA1-190 K37A/K39A): no binding
